Assay [1] deals with T1, HAdV-D30 fiber-knob protein (Human adenovirus 30, UniProt M0QTV3).
T1 construct: gene L5; trimer
The assay can be described thus: X-ray crystal structure of soaked crystal. It counts as binding. To be noted: 10 mM soak; conserved apical pocket; mixture of alpha and beta anomers.

In assay [2] the target is T2, HAdV-D53 fiber-knob protein (Human adenovirus 53, UniProt E5RWD1).
T2 construct: gene L5; trimer
The assay can be described thus: X-ray crystal structure of briefly soaked crystal. It counts as binding. To be noted: 10 mM, very short soak; conserved apical pocket; beta anomer modelled.

Assay [3] deals with T3, HAdV-D29 fiber-knob protein (Human adenovirus 29, UniProt E1CIQ3).
T3 construct: gene L5; trimer
As to the kind of experiment: X-ray crystal structure of soaked crystal. The format is binding. To be noted: 10 mM soak; conserved apical pocket; mixture of alpha and beta anomers.

The target in assay [4] is T4, HAdV-D25 fiber-knob protein (Human adenovirus 25, UniProt M0QUM1).
T4 construct: gene L5; trimer
The assay can be described thus: X-ray crystal structure of soaked crystal. The format is binding. To be noted: 10 mM soak; conserved apical pocket; mixture of alpha and beta anomers.

Assay [5] deals with HAdV-D29 fiber knob protein (human adenovirus D29). As to the kind of experiment: crystal structure; apo crystals of recombinant fiber knob protein; Pact Premier Screen, 18 °C, data at 100 K; trimer seen in the structure.
The target in assay [6] is HAdV-D24 fiber knob protein (human adenovirus D24). The assay is described as above.
The target of assay [7] is HAdV-D15 fiber knob protein (human adenovirus D15). The description is as above.
The target in assay [8] is HAdV-D32 fiber knob protein (human adenovirus D32). The description is as above.
Assay [9] deals with HAdV-D30 fiber knob protein (human adenovirus D30). The description is as above.
Assay [10] has as its target HAdV-D53 fiber knob protein (human adenovirus D53). Described as above.

These results are taken from article PMC11041768, “Broad sialic acid usage amongst species D human adenovirus” (npj Viruses, 2023).

In general, stoichiometry N refers to the number of molecules, sites or subunits per partner or assembly.

For the compound `CC(=O)N[C@H]1[C@H]([C@H](O)[C@H](O)CO)OC(O)(C(=O)O)C[C@@H]1O` (mixture of isomers) [sialic acid], the “X-ray crystal structure of soaked crystal” value in [1] was “four structures of HAdV-D25, D29, D30 and D53 in complex with sialic acid”; in [3] it was “four structures of HAdV-D25, D29, D30 and D53 in complex with sialic acid”; in [4], “four structures of HAdV-D25, D29, D30 and D53 in complex with sialic acid”. Moreover, the “X-ray crystal structure of briefly soaked crystal” value in [2] is listed as “short soak allowed only two of four trimers in the asymmetric unit to bind β-sialic acid”.

For “HAdV-D29 fiber knob protein (domain or fragment)”, the stoichiometry N in assay [5] came to 3.

Take “HAdV-D24 fiber knob protein (domain or fragment)”: the stoichiometry N in assay [6] was found to be 3.

“HAdV-D15 fiber knob protein (domain or fragment)”: the stoichiometry N in [7] turned out to be 3.

As to “HAdV-D32 fiber knob protein (domain or fragment)”, in [8], the stoichiometry N was 3.

For the compound “HAdV-D30 fiber knob protein (domain or fragment)”, in [9], the stoichiometry N worked out at 3.

Turning to “HAdV-D53 fiber knob protein (domain or fragment)”, in [10], the stoichiometry N came to 3.
